This assay addresses Taliglucerase alfa (recombinant GCase) (human) (UniProt P04062). Briefly: AUC.

“Taliglucerase alfa (recombinant GCase) (from UniProt P04062 40-536) (enzyme)”: the population of the dimer species amounted to 47% and the stoichiometry N was found to be 2.

As a reminder, the stoichiometry N is a count of units in the complex or per binding partner.

Values taken from PMC4361889.
